These results are taken from US20090324491A1 (FORERUNNER PHARMA RESEARCH, published 2009).

First the molecules themselves.
B1: anti-EREG mouse monoclonal antibody EP29 (B3#41) (antibody, mouse IgG1, V domains shown)
VH: EVQLQQSGTVLARPGASVKMSCKASGYTFTSYWMHWVKQRPGQGLEWIGAIYPGNSDSYNQKFKGKAKLTAVTSTSTAYMELSSLTNEDSAVYYCTSVMAYWGQGTSVTVSS
VL: DIQMTQSPSSLSASLGERVSLTCRASQDIGNSLNWLQQEPDGTIKRLIYATSNLDSGVSKRFSGSRSGSDYSLTISSLESEDFVDYYCLQYASSPWTFGGGTKLEIK
notes: Mouse IgG1/κ hybridoma antibody
B2: anti-EREG mouse monoclonal antibody EP24 (B3#8) (antibody, mouse IgG1, V domains shown)
VH: QVQLKESGPGLVAPSQSLSITCTVSGFSLSSYGVHWVRQPPGKGLEWLGVIWRDGSTTYNSALKSRLSISKDGSKSQVFLKMNSLQTDDTAMYYCARNWNGLMDYWGQGTSVTVSS
VL: DIQMTQTTSSLSASLGDRVTISCRASQDISYYLNWYQQRPDGTVKLLIYYTSRLHSGVPSRFSGSGSGTESSLTISNLEQEDIATYFCQQGHTVPWTFGGGTKLEIK
notes: as for B1
B3: anti-EREG mouse monoclonal antibody EP27 (B3#18) (antibody, mouse IgG2b, V domains shown)
VH: EDQLQQSGAELVKPGASVKLSCTASGFNIKDTYIQWVKLRPEQGLEWIGRIDPLNGNTKYVPKFQGKATITADTSSNTAYLQLSSLTSEDTAVYYCVRSGTLFDFWGQGTTLTVSS
VL: DIQMTQSPSSLSASLGGKVTITCKASQDIHKYIAWYQHKPGKGPRLLIQYTSTLQPGIPSRFSGSGSGRDYSFSISNLEPEDIATYYCLQYDNLRTFGGGTKLEIK
notes: also called B3#18_IgG2b
B4: anti-EREG mouse monoclonal antibody EP03 (C7) (antibody, mouse IgG1, V domains shown)
VH: QVQLQQPGAELVKPGASVKLSCKASGYTFTNYWMNWVKQRPGRGLEWIGRIHPSDSETHYNQKFKNKATLTVDKSSSTAYIQLSSLTSEDSAVYYCANLYYYTMDYWGQGTSVTVSS
VL: DIQMTQSPSSLSASLGGKVTITCKASQDINKNIAWHQHKPGKGPRLLIWYTSTLQPGIPSRFSGSGSGRDYSFSISNLEPEDIATYYCLQYDNLPYTFGSGTKLEIK
notes: as for B1
B5: anti-EREG mouse monoclonal antibody EP08 (#15) (antibody, mouse IgG1, V domains shown)
VH: QVQLQQPGAELVKPGASVKLSCKASGYTFTSYWMHWVKQRPGQGLEWIGEINPYNGGTNYNEKFKSKATLTVDKSSSTAYMQLSSLTSEDSAVYYCTIWKLGTYWGQGTLVTVSA
VL: DIQMTQSPSSLSASLGERVSLTCRASQEISGYLSWLQQKPDGTIKRLIYAASTLDSGVPKRFSGSRSGSDYSLTISSLESEDFADYYCLQYASYPRTFGGGTKLEIK
notes: as for B1
B6: anti-EREG mouse monoclonal antibody EP20 (B2#30) (antibody, mouse IgG1, V domains shown)
VH: QVQLQQSGAELVRPGVSVKISCKGSGYTFTVYSLHWVKQSHARSLEWIGVISTYYGDAIYNQKFKGKATMTVDKSSSTAYMELARLTSEDSAIYYCAREGNGNPLDYWGQGTTLTVSS
VL: QIVLTQSPAIMSASLGERVTMTCTASSSVSSSYLHWYQQKPGSSPKLWIYSTSNLASGVPARFSGSGSGTSYSLTITNMEAEDSATYYCHQYHRSPLTFGAGTKLELK
notes: as for B1

T1 sequence (O14944 63-108): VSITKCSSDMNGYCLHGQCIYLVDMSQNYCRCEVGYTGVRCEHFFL

The first assay has as its target T1, soluble human EREG fragment (EGF domain; 63Val to 108Leu) comprising a mature structure, R&D Systems cat. no. … (human, UniProt O14944 63-108).
T1 construct: Bought protein; also called soluble EREG; recombinant human EREG
The assay can be described thus: ELISA, EREG fragment immobilized on immuno plate; note: binds, but with low reactivity. On the procedure: (§1) The binding towards partial fragments of the extracellular domain of human EREG was analyzed to determine antibody epitope. The N-terminal partial sequence fragment of ²⁹Ala to ⁶⁹Ser of human EREG of SEQ ID NO: 21 was expressed as a GST fusion protein and purified to homogeneity. The sequence of the obtained recombinant protein is shown in SEQ ID NO: 172. A soluble human EREG fragment (EGF domain; corresponding to ⁶³Val to ¹⁰⁸Leu of SEQ ID NO: 21) comprising a mature structure was purchased from R&D Systems (cat. no. 1195-EP/CF). Fragments of the EREG protein were immobilized onto an immuno plate, and the binding of the antibodies was examined by ELISA. Most of the antibodies bound to the soluble EREG fragment that comprises the EGF domain (indicated as “ereg” in Table 3). EP25 and EP32 bound to the N-terminal fragment (“Nterm”). All of the isolated antibodies bound to either one of the peptide fragments, and none of the antibodies recognized the sequence beyond residue 109.
For the molecule B1, the binding result is listed as “binds”.

Another assay deals with T1, soluble human EREG fragment (EGF …). Nature of the assay: ELISA, EREG fragment immobilized on immuno plate. On the procedure: as §1
With B2, the binding result is given as “binds”. Same read-out and setting: in the case of B3 it was “binds”. As to B4, the binding result is given as “binds”.

Regarding B5, the binding result is “binds”. Take B6: the binding result is listed as “binds”.
